Data on one molecule can be found in article PMC9481602 (2022).

For one assay, the target named is nonmodified ubiquitin (UniProt P0CG48 1-76). The assay can be described thus: NMR.
Assay [1] addresses ubiquitin acetylated at K48 (UniProt P0CG48 1-76, acetyllysine (AcK) at position 48). The assay can be described thus: NMR.

As usually defined, the Kd is a measure of binding affinity in units of concentration. Read a high Kd as a looser complex. In the case of RFQQQLEQLNAMGFLNREANLQALIATGGDINAAIERLLGS (domain or fragment) [UBA domain of human Ubiquilin-2], the Kd in the assay with nonmodified ubiquitin was 500 nM; in assay [1] it was 1300 nM.
